# According to the supplement of paper PMC9112550, “Optimization of the antimicrobial peptide Bac7 by deep mutational scanning” (BMC Biology, 2022):
# Test system: Escherichia coli TOP10
# Test: shrunken log2 fold change of peptide-encoding DNA abundance (4.5 h post-induction vs induction); higher = less antimicrobial activity (less host growth inhibition)
# Conditions: time post-induction: 4.5 h; library: site-saturation at positions 5, 18, 19, 20
# 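Further: peptides expressed intracellularly from a pBAD plasmid library in pooled LB shake-flask culture, induced with 0.3% L-arabinose, DNA abundance read by NGS, three biological replicates, DESeq2 with apeglm shrinkage.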
row,Sequence,shrunken log2 fold change
1,RRIRSRPPRLPRPRPRPRPPPRP,1.13
2,RRIRVRPPRLPRPRPRPIVVPRP,-0.129
3,RRIRVRPPRLPRPRPRPWKHPRP,-0.0202
4,RRIRHRPPRLPRPRPRPSWQPRP,0.0601
5,RRIRFRPPRLPRPRPRPMKWPRP,-0.0607
6,RRIRRRPPRLPRPRPRPWGHPRP,-0.165
7,RRIRLRPPRLPRPRPRPEAAPRP,0.732
8,RRIRGRPPRLPRPRPRPCKLPRP,-0.378
9,RRIRYRPPRLPRPRPRPQFIPRP,-1.19
10,RRIRYRPPRLPRPRPRPQHFPRP,-0.0787
11,RRIRDRPPRLPRPRPRPLQWPRP,0.219
12,RRIRERPPRLPRPRPRPFCDPRP,0.211
13,RRIRARPPRLPRPRPRPDKHPRP,-0.0889
14,RRIRCRPPRLPRPRPRPGEDPRP,-0.0369
15,RRIRGRPPRLPRPRPRPEFHPRP,1.85
16,RRIRDRPPRLPRPRPRPQNHPRP,-0.34
17,RRIRVRPPRLPRPRPRPEPDPRP,0.242
18,RRIRMRPPRLPRPRPRPLKCPRP,-0.0167

row,Sequence,shrunken log2 fold change
1,RRIRSRPPRLPRPRPRPWFHPRP,-0.664
2,RRIRRRPPRLPRPRPRPDVKPRP,3.47
3,RRIRERPPRLPRPRPRPFWEPRP,-0.56
4,RRIRERPPRLPRPRPRPIKFPRP,-0.0529
5,RRIRRRPPRLPRPRPRPRDRPRP,0.713
6,RRIRVRPPRLPRPRPRPVDSPRP,0.0147
7,RRIRVRPPRLPRPRPRPSIHPRP,-0.755
8,RRIRRRPPRLPRPRPRPSEIPRP,0.0269
9,RRIRRRPPRLPRPRPRPAASPRP,0.38
10,RRIRHRPPRLPRPRPRPKQDPRP,-0.557
11,RRIRQRPPRLPRPRPRPWCEPRP,-0.105
12,RRIRDRPPRLPRPRPRPYRYPRP,-0.0188
13,RRIRWRPPRLPRPRPRPCWMPRP,0.0693
14,RRIRSRPPRLPRPRPRPWLKPRP,0.0524
15,RRIRSRPPRLPRPRPRPESKPRP,0.385
16,RRIRLRPPRLPRPRPRPCEFPRP,-0.032
17,RRIRLRPPRLPRPRPRPHNPPRP,-0.883
18,RRIRDRPPRLPRPRPRPKVTPRP,-0.0277
